Measured values: CN118638216A

Target: 新型冠状病毒SARS-CoV-2和SARS-CoV以及动物来源的SARS-like冠状病毒S1
Assay: ELISA, S1 proteins coated at 2 μg/mL, antibody titrated from 10 μg/mL

B1: 全人源广谱抗sarbecovirus和/或新冠突变株的抗体(VSCM8-83) (antibody, V domains shown)
VH: EVQLVEFGGGLVQPGGSLRLSCAASGFAVSSNYMSWVRQAPGKGLEWVSVIYGDGTTYYGDSVKGRFTISRHNSKNTLYLQMNSLRTEDTAVYYCARIVSEAFDLWGQGTMVTVSS
VL: DIQMTQSPSTLSASVGDRVTITCRASQSIGRWLAWYQQKPGKAPKLLIYMASILESGVPSRFSGSGSATEFTLTISSLQPDDFATYYCQQYNGYSQYTFGQGTKLEIKR
- EC50: 0.0397 to 0.0749 µg/mL
